The record followed here is article PMC11417369, “DNA sequence and chromatin differentiate sequence-specific transcription factor binding in the human malaria parasite Plasmodium falciparum”.

In the data set the target is T1, AP2-G D1 (Plasmodium falciparum, UniProt Q8I5I9 2123-2245).
T1 sequence: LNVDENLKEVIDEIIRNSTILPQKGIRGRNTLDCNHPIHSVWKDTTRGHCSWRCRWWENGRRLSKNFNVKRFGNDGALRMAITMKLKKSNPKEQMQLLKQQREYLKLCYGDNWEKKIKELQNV
In words: gcPBM; about 25 ug protein; PBS, 1% milk, 0.2 mg/ml BSA, salmon testes DNA, 0.03% Triton X-100. As to conditions: tags: N-terminal GST (pGEX-4T-1), kept; label: surface-attached array probe.

B1: XGTACX_site6448 (dsDNA)
DNA 1: AATTTATATGTTTTGTGTACACAATTTATTAAATTA
DNA 2: TAATTTAATAAATTGTGTACACAAAACATATAAATT
In the case of B1, the binding signal was 12.6 ln median PBM intensity, better of two orientations.

B2: XGTACX_site5245 (dsDNA)
DNA 1: AAAAACAAAATTTGGAGTACAGTTATAATATTATTA
DNA 2: TAATAATATTATAACTGTACTCCAAATTTTGTTTTT
Consider B2, for which the binding signal was 12.7 ln median PBM intensity, better of two orientations.

B3: XGTACX_site6063 (dsDNA)
DNA 1: ATGCATATATTTATGTGTACATATATTTGTAGGGGG
DNA 2: CCCCCTACAAATATATGTACACATAAATATATGCAT
Consider B3, for which the binding signal is 12.6 ln median PBM intensity, better of two orientations.

B4: XGTACX_site6582 (dsDNA)
DNA 1: TTTCATTTTTTTACATGTACGCAAAAGTGTGTAGTT
DNA 2: AACTACACACTTTTGCGTACATGTAAAAAAATGAAA
For the molecule B4, the binding signal was 12.6 ln median PBM intensity, better of two orientations.

B5: XGTACX_site1238 (dsDNA)
DNA 1: ATGTGCACATATAAAAGTACACGCACATATATATAT
DNA 2: ATATATATATGTGCGTGTACTTTTATATGTGCACAT
Take B5: the binding signal is 12.6 ln median PBM intensity, better of two orientations.

B6: XGTACX_site6677 (dsDNA)
DNA 1: TTGTATTTCCTTAGGAGTACACATAAATAAGTAAAT
DNA 2: ATTTACTTATTTATGTGTACTCCTAAGGAAATACAA
Consider B6, for which the binding signal is 12.7 ln median PBM intensity, better of two orientations.

B7: XGTACX_site7381 (dsDNA)
DNA 1: TATCTTTATATATAGTGTACACATTAAACAAATCTC
DNA 2: GAGATTTGTTTAATGTGTACACTATATATAAAGATA
For B7, the binding signal is 12.4 ln median PBM intensity, better of two orientations.

B8: XGTACX_site2541 (dsDNA)
DNA 1: ACAGCTACCAGATACTGTACTTTTCTCCAGACTGCA
DNA 2: TGCAGTCTGGAGAAAAGTACAGTATCTGGTAGCTGT
Regarding B8, the binding signal was 12.6 ln median PBM intensity, better of two orientations.

B9: XGTACX_site8781 (dsDNA)
DNA 1: TAAATAAATTTGCACTGTACGCAAAAAAAAAAAAGA
DNA 2: TCTTTTTTTTTTTTGCGTACAGTGCAAATTTATTTA
Consider B9, for which the binding signal is 12.6 ln median PBM intensity, better of two orientations.

B10: XGTACX_site5339 (dsDNA)
DNA 1: TATTTTTTACATTCGTGTACGCATTTTTGTGAATTT
DNA 2: AAATTCACAAAAATGCGTACACGAATGTAAAAAATA
Turning to B10, the binding signal is 12.7 ln median PBM intensity, better of two orientations.

B11: XGTACX_site6504 (dsDNA)
DNA 1: TGAAAAGATAAAAAAAGTACACACACACATATATAT
DNA 2: ATATATATGTGTGTGTGTACTTTTTTTATCTTTTCA
B11: the binding signal was 12.7 ln median PBM intensity, better of two orientations.

B12: XGTACX_site4322 (dsDNA)
DNA 1: TTACGATACTTTAGGTGTACACAAATATACATGAAT
DNA 2: ATTCATGTATATTTGTGTACACCTAAAGTATCGTAA
For B12, the binding signal is 12.6 ln median PBM intensity, better of two orientations.

B13: XGTACX_site882 (dsDNA)
DNA 1: TTTTCTTTTTTGAACTGTACGCGTAAATTTAAAAAG
DNA 2: CTTTTTAAATTTACGCGTACAGTTCAAAAAAGAAAA
With B13, the binding signal is 12.7 ln median PBM intensity, better of two orientations.

B14: XGTACX_site206 (dsDNA)
DNA 1: TGTTTATACATCAGGTGTACGCAAAATAATTGTATG
DNA 2: CATACAATTATTTTGCGTACACCTGATGTATAAACA
In the case of B14, the binding signal was 12.7 ln median PBM intensity, better of two orientations.

B15: XGTACX_site5662 (dsDNA)
DNA 1: TTATTCTAAAAAGGGTGTACACAAACGAATGGAAAA
DNA 2: TTTTCCATTCGTTTGTGTACACCCTTTTTAGAATAA
For the molecule B15, the binding signal was 12.6 ln median PBM intensity, better of two orientations.

B16: XGTACX_site1983 (dsDNA)
DNA 1: GTTTGGTGGTGTTTTGGTACGTACGGGGGGGTATGT
DNA 2: ACATACCCCCCCGTACGTACCAAAACACCACCAAAC
Turning to B16, the binding signal is 12.7 ln median PBM intensity, better of two orientations.

B17: XGTACX_site2346 (dsDNA)
DNA 1: TTAATAATAAAAAGGAGTACACTAATATACTATAAA
DNA 2: TTTATAGTATATTAGTGTACTCCTTTTTATTATTAA
Take B17: the binding signal is 12.7 ln median PBM intensity, better of two orientations.

B18: XGTACX_site4360 (dsDNA)
DNA 1: GATTAAAATCAAAGGTGTACGCACAAATAAGTCCCA
DNA 2: TGGGACTTATTTGTGCGTACACCTTTGATTTTAATC
As for B18, the binding signal is 12.7 ln median PBM intensity, better of two orientations.

B19: XGTACX_site6064 (dsDNA)
DNA 1: TAAAACATATAAAGGTGTACGCCTTTTTGTATCAAT
DNA 2: ATTGATACAAAAAGGCGTACACCTTTATATGTTTTA
Regarding B19, the binding signal was 12.6 ln median PBM intensity, better of two orientations.

B20: XGTACX_site8253 (dsDNA)
DNA 1: TTTTATGAAAAGATGAGTACACAATACTTTTTAATT
DNA 2: AATTAAAAAGTATTGTGTACTCATCTTTTCATAAAA
In the case of B20, the binding signal is 12.7 ln median PBM intensity, better of two orientations.

B21: XGTACX_site622 (dsDNA)
DNA 1: CTTTGTGTTAAAAGTAGTACACCAAAAATATGACTT
DNA 2: AAGTCATATTTTTGGTGTACTACTTTTAACACAAAG
For the molecule B21, the binding signal is 12.7 ln median PBM intensity, better of two orientations.

B22: XGTACX_site930 (dsDNA)
DNA 1: ATACATATTAATATGTGTACACATTTTTATTTTTTT
DNA 2: AAAAAAATAAAAATGTGTACACATATTAATATGTAT
Consider B22, for which the binding signal was 12.6 ln median PBM intensity, better of two orientations.

B23: XGTACX_site3178 (dsDNA)
DNA 1: CTTGAAAGATTTTATTGTACTCATAAGATACATTTC
DNA 2: GAAATGTATCTTATGAGTACAATAAAATCTTTCAAG
In the case of B23, the binding signal was 12.7 ln median PBM intensity, better of two orientations.

B24: XGTACX_site5031 (dsDNA)
DNA 1: ACATTATATAAAATATGTACACATAAATAAATAAAT
DNA 2: ATTTATTTATTTATGTGTACATATTTTATATAATGT
Regarding B24, the binding signal is 12.7 ln median PBM intensity, better of two orientations.

B25: XGTACX_site8843 (dsDNA)
DNA 1: ATAATTATTTTCCCGTGTACTTATTTTTTTCAAGTA
DNA 2: TACTTGAAAAAAATAAGTACACGGGAAAATAATTAT
Consider B25, for which the binding signal is 12.6 ln median PBM intensity, better of two orientations.

B26: XGTACX_site3752 (dsDNA)
DNA 1: TAAAAAAAAAAAAAAAGTACACACATACATATAAAT
DNA 2: ATTTATATGTATGTGTGTACTTTTTTTTTTTTTTTA
B26: the binding signal is 12.7 ln median PBM intensity, better of two orientations.

B27: XGTACX_site3357 (dsDNA)
DNA 1: AATATCCACATTAGGAGTACACAGCTAACTGTTTGA
DNA 2: TCAAACAGTTAGCTGTGTACTCCTAATGTGGATATT
In the case of B27, the binding signal was 12.6 ln median PBM intensity, better of two orientations.

B28: XGTACX_site2176 (dsDNA)
DNA 1: CTTCTTATTTTCTAATGTACGTACAAATCATTTATA
DNA 2: TATAAATGATTTGTACGTACATTAGAAAATAAGAAG
As to B28, the binding signal was 12.6 ln median PBM intensity, better of two orientations.

B29: XGTACX_site2257 (dsDNA)
DNA 1: CAAAATATACACACGTGTACACAAATATTTACAAAA
DNA 2: TTTTGTAAATATTTGTGTACACGTGTGTATATTTTG
With B29, the binding signal is 12.6 ln median PBM intensity, better of two orientations.

B30: XGTACX_site3050 (dsDNA)
DNA 1: ATATAATTTTTCAAGTGTACTTTTTTTTTTTAACAT
DNA 2: ATGTTAAAAAAAAAAAGTACACTTGAAAAATTATAT
As for B30, the binding signal was 12.7 ln median PBM intensity, better of two orientations.
